Test results: IntAct's records for PubMed 23085988

B1: Sorting nexin-8 (Homo sapiens), Q9Y5X2 (parent)
chain: MTGRAMDPLPAAAVGAAAEAEADEEADPPASDLPTPQAIEPQAIVQQVPAPSRMQMPQGNPLLLSHTLQELLARDTVQVELIPEKKGLFLKHVEYEVSSQRFKSSVYRRYNDFVVFQEMLLHKFPYRMVPALPPKRMLGADREFIEARRRALKRFVNLVARHPLFSEDVVLKLFLSFSGSDVQNKLKESAQCVGDEFLNCKLATRAKDFLPADIQAQFAISRELIRNIYNSFHKLRDRAERIASRAIDNAADLLIFGKELSAIGSDTTPLPSWAALNSSTWGSLKQALKGLSVEFALLADKAAQQGKQEENDVVEKLNLFLDLLQSYKDLCERHEKGVLHKHQRALHKYSLMKRQMMSATAQNREPESVEQLESRIVEQENAIQTMELRNYFSLYCLHQETQLIHVYLPLTSHILRAFVNSQIQGHKEMSKVWNDLRPKLSCLFAGPHSTLTPPCSPPEDGLCPH

Variants of: B1
Settings: with snx1_human SNX1, Q13596
snx1_human SNX1, Q13596, sequence (Q13596 whole entry): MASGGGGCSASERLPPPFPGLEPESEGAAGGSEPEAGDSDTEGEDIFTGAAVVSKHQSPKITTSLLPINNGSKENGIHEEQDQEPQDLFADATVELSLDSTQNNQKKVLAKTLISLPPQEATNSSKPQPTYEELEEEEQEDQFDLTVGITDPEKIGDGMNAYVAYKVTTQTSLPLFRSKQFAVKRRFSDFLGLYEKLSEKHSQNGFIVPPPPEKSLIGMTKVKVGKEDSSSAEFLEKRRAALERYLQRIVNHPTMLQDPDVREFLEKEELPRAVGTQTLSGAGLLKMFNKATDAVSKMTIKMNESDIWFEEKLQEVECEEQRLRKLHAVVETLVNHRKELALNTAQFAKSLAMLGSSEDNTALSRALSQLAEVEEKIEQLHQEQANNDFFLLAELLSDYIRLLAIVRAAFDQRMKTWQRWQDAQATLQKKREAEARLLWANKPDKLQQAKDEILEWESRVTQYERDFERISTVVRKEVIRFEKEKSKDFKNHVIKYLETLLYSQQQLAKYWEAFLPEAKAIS

Variant | effect of a mutation on the interaction
MTGRAMDPLPAAAVGAAAEAEADEEADPPASDLPTPQAIEPQAIVQQVPAPSRMQMPQGNPLLLSHTLQELLARDTVQVELIPEKKGLFLKHVEYEVSSQRFKSSVYRRYNDFVVFQEMLLHKFPYRMVPALPPKRMLGADREFIEARRRALKRFVNLVARHPLFSEDVVLKLFLSFSGSDVQNKLKESAQCVGDEFLNCKLATRAKDFLPADIQAQFAISRELIRNIYNSFHKLRDRAERIASRAIDNAADLLIFGKELSAIGSDTTPLPSWAALNSSTWGSLKQALKGLSVEFALLADKAAQQGKQEINDVVEKLNLFLDLLQSYKDLCERHEKGVLHKHQRALHKYSLMKRQMMSATAQNREPESVEQLESRIVEQENAIQTMELRNYFSLYCLHQETQLIHVYLPLTSHILRAFVNSQIQGHKEMSKVWNDLRPKLSCLFAGPHSTLTPPCSPPEDGLCPH [E310I] | increasing interaction
